The values that follow come from PMC9239997, “Structural basis for mitoguardin-2 mediated lipid transport at ER-mitochondrial membrane contact sites” (Nature Communications, 2022).

The chains are these.
B1: mouse MIGA2 residues 275-570, wild type [mouse (Mus musculus)] / MSP domain of mouse VAPB (residues 1-125) fused to GST [mouse (Mus musculus)] (parent complex)
chain 1: GSLRLRADDEDSLTSEDSFFSATEIFESLQIGEYPLPLSRPAAAYEEALQLVKEGRVPCRTLRTELLGCYSDQDFLAKLHCVRQAFEGLLEERSNQIFFGEVGRQMVTGLMTKAEKSPKGFLESYEEMLSYALRPETWATTRLELEGRGVACMSFFDIVLDFILMDAFEDLENPPSSVLAVLRNRWLSDSFKETALATACWSVLKAKRRLLMVPDGFISHFYSVSEHVSPVLAFGFLGPKPQLSEVCAFFKHQIVQYLRDMFDLDNVRYTSVPALAEDILQLSRRRSEILLGYLGA
chain 2: MAKVEQVLSLEPQHELKFRGPFTDVVTTNLKLGNPTDRNVCFKVKTTVPRRYCVRPNSGVIDAGASLNVSVMLQPFDYDPNEKSKHKFMVQSMFAPPDTSDMEAVWKEAKPEDLMDSKLRCVFEL

In the test the parent is B1. The experiment in a line: GST pull-down; parent: 0.01; read off a plot.
With chain 1 S21D, the screen value is ~0.4. To chain 1 S18E belongs ~0.01; to chain 1 S18E, chain 1 S21D, ~1.
